Source: publication PMC9309889, “Cryo-EM Structure of an Atypical Proton-Coupled Peptide Transporter: Di- and Tripeptide Permease C” (Frontiers in Molecular Biosciences, 2022)

Target: the molecule itself
Test: cryo-EM structure; DtpC-Nb26 complex in 0.015% DDM, 100 mM NaCl, 10 mM HEPES pH 7.5, 0.5 mM TCEP; inverted dimer at 3.0 Å, local focused refinement on one transporter at 2.7 Å

B1: Di- and tripeptide permease C (DtpC), wild type (natural protein, Escherichia coli, UniProt P39276 1-485, looked up)
chain: MKTPSQPRAIYYIVAIQIWEYFSFYGMRALLILYLTHQLGFDDNHAISLFSAYASLVYVTPILGGWLADRLLGNRTAVIAGALLMTLGHVVLGIDTNSTFSLYLALAIIICGYGLFKSNISCLLGELYDENDHRRDGGFSLLYAAGNIGSIAAPIACGLAAQWYGWHVGFALAGGGMFIGLLIFLSGHRHFQSTRSMDKKALTSVKFALPVWSWLVVMLCLAPVFFTLLLENDWSGYLLAIVCLIAAQIIARMMIKFPEHRRALWQIVLLMFVGTLFWVLAQQGGSTISLFIDRFVNRQAFNIEVPTALFQSVNAIAVMLAGVVLAWLASPESRGNSTLRVWLKFAFGLLLMACGFMLLAFDARHAAADGQASMGVMISGLALMGFAELFIDPVAIAQITRLKMSGVLTGIYMLATGAVANWLAGVVAQQTTESQISGMAIAAYQRFFSQMGEWTLACVAIIVVLAFATRFLFSTPTNMIQESND
notes: Di- and tripeptide permease C (DtpC, YjdL) of Escherichia coli; full-length cDNA amplified from the E. coli genome, cloned into pNIC-CTHF; The His tag was cut off with TEV protease; also called YjdL; DtpC WT; source: E. coli C41(DE3), purified in DDM (Ni-NTA, TEV cleavage, negative IMAC, SEC); not shown: His-Tag, C-terminal, cleaved
- stoichiometry N: 2
